The subject of data set [1] is T1, SF370.1 recombinase (Streptococcus pyogenes phage SF370.1).
T1 sequence: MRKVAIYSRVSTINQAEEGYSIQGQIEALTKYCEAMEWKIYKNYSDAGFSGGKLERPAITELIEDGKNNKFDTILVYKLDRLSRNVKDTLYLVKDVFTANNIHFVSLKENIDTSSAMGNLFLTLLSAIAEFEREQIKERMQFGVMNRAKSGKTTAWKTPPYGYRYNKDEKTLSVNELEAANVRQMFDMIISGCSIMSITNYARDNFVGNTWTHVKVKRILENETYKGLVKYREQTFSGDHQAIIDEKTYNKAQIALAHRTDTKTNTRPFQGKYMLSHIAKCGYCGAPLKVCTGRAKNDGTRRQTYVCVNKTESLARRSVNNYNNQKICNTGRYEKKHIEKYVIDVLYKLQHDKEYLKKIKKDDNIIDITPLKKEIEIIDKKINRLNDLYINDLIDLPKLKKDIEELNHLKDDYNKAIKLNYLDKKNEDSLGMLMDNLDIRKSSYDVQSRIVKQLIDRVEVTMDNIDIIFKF
As to the kind of experiment: cell_activity. Particulars: integration of attP (N3) plasmid at pseudo attB; 9 clones without recombinase; 35 of 100 rescued at this site.

Data set [2] deals with T2, SPβc2 recombinase (yokA) (Bacillus subtilis phage SPβc2) (UniProt O32006).
T2 sequence: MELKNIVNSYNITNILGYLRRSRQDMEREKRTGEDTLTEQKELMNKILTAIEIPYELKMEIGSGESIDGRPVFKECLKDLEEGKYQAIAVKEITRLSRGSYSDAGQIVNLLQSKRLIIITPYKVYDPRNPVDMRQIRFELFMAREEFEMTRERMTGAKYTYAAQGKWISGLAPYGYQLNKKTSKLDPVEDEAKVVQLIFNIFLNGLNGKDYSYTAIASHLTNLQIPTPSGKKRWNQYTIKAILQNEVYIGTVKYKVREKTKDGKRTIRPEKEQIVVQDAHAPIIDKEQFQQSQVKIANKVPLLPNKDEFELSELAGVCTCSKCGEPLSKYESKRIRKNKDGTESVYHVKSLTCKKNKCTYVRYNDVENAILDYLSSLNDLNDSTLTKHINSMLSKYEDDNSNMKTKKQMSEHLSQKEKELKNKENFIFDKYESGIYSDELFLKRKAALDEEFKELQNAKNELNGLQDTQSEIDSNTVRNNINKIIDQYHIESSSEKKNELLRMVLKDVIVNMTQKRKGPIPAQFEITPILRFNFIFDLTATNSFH
As to the kind of experiment: cell_activity. To be noted: integration of attP (N1) plasmid at pseudo attB; 0 clones without recombinase; 15 integrations at this site.

Regarding SF370.1 human pseudo attB, the activity (hygromycinR clones) in data set [1] is more than 100. Turning to SPβc2 human pseudo attB, the activity (hygromycinR clones) in data set [2] is more than 100.

For the origin of these results see patent US20060172377.
